Data taken from US20130323249A1 (published 2013).

Legend:
[1] = molecular target: T1, human PD-L1 expressed on the surface of cells (human, UniProt Q9NZQ7 19-290); experiment: flow cytometry (Intellicyt HTFC) on CHO-PD-L1 cells, PE anti-human IgG detection
T1 construct: whole, on cells; also called CHO-PD-L1; PD-L1 on ES-2 ovarian carcinoma cells
Protocol: (§1) After 0.5 hr incubation, cells were washed 1× with FACS Buffer and resuspended in 50 μl PE-conjugated, goat anti-human IgG (γ-chain specific) secondary antibody (Southern Biotech Cat #2040-09). Cells were further incubated for 0.5 hr and then washed 1× with FACS Buffer. Cells were resuspended in 25 μl FACS Buffer and the median fluorescence intensity in the FL2-H channel was determined using the Intellicyt HTFC flow cytometer.

[2] = molecular target: T2, rhPD-L1 (human, UniProt Q9NZQ7 19-238, limits assumed); experiment: Biacore SPR, rhPD-L1 immobilized on CM5 chip, antibody in solution, 1:1 Langmuir fit
T2 construct: also called recombinant human PD-L1
Protocol: All measurements were conducted in HBS-EP buffer with a flow rate of 30 μL/min. Antibody was diluted so as to obtain a series of concentrations. A 1:1 (Langmuir) binding model was used to fit the data.

[3] = molecular target: T3, PD-L1/Fc (human, UniProt Q9NZQ7 19-238, limits assumed); experiment: competition ELISA: G12 IgG pre-mixed with PD-L1/Fc, binding to coated PD1/His detected with anti-human Fc HRP
T3 construct: also called rhPD-L1; not shown: Fc part (detected with anti-human Fc)
Protocol: A 96-well ELISA plate was coated with 1 ng/μL PD1/His at 4° C. overnight, then blocked with casein in PBS. […] Transferred 25 μl the mixtures to the ELISA plate and incubated 30 min with shaking. Washed 3 times with PBST. Added HRP conjugated Goat anti-human Fc (1:500 in casein), used TMB as substrate and developed 30 min. 2M H₂SO₄ was added to stop the reaction. Read the OD at 450 nm.

[4] = molecular target: T1, human PD-L1 expressed on the surface of …; experiment: flow cytometry (Intellicyt HTFC) on ES-2 ovarian carcinoma cells treated with IFNγ for 18 hr, PE anti-human IgG detection
Protocol: as §1

[5] = molecular target: T1, human PD-L1 expressed on the surface of …; experiment: flow cytometry competition: CHO-PD-L1 cells pre-incubated with G12, then rhPD-1-Fc, detected with Alexa-Fluor 647 anti-PD-1 antibody
From the text: Data points are shown as the median fluorescence detected in the FL-4H channel +/− Std Error.

T2 sequence (Q9NZQ7 19-238 limits assumed): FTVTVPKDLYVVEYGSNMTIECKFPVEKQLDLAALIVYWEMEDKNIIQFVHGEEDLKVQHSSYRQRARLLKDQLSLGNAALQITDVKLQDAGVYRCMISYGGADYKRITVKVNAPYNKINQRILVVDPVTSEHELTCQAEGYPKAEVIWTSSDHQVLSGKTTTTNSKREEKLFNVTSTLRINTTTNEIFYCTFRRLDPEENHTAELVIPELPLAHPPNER
T1 sequence (Q9NZQ7 19-290): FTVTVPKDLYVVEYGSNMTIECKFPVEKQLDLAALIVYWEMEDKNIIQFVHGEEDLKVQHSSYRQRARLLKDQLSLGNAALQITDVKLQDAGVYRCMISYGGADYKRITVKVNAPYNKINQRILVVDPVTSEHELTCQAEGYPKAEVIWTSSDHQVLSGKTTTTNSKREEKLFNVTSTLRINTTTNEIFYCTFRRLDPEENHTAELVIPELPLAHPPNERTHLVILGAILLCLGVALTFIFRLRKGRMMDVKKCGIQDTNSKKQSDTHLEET
T3 sequence (Q9NZQ7 19-238 limits assumed): as the sequence (Q9NZQ7 19-238 limits assumed) above

EC50 [1]: 1.71 nM
Kd [2]: 0.0374 nM
koff [2]: 0.00049 s⁻¹
kon [2]: 1.31e+07 M⁻¹ s⁻¹
IC50 [3]: 0.0729 nM
EC50 [4]: 0.0458 nM
IC50 [5]: 1.76 nM
B1: G12 anti-PD-L1 antibody (antibody, V domains shown)
VH: EVQLVQSGAEVKKPGASVKVSCKASGYTFTGYYMHWVRQAPGQGLEWMGWINPNSDNTGSAQKFQGRVFMTKTTSLNTAYMELSGLRSEDTAIYYCARERSSGYFDFWGQGTLVTVSS
VL: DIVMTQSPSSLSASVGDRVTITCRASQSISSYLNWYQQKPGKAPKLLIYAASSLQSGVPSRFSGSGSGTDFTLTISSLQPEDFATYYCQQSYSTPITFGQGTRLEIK
notes: Fully human antibody of an IgG class; detected with anti-human IgG gamma-chain specific secondary; also called anti-PD-L1 mAb G12
